The values below come from US20260184804A1 (KEY2BRAIN, published 2026).

Assay [1] deals with T1, His-tagged ectodomain of human transferrin receptor 1 (hTfR1), amino acids R121-F760 (human, UniProt P02786 121-760).
T1 construct: Made in CHO cells, purified by IMAC; also called human TfR1; ectodomain of hTfR1
As to the kind of experiment: SPR (Biacore T200, single-cycle); hTfR1 captured on amine-coupled hTf, binder as analyte 6.25-100 nM.

In assay [2] the target is T1, His-tagged ectodomain of human …. Description: SPR; hTfR1 pre-complexed with immobilised hTf.
Assay [3] concerns the target T2, His-tagged ectodomain of mouse transferrin receptor 1 (mTfR1), amino acids S122-F763 (mouse, UniProt Q62351 122-763).
T2 construct: Made in CHO cells; also called mouse TfR1
As to the kind of experiment: SPR (Biacore T200); mTfR1 amine-coupled on CM5, KB_A01 as analyte. The method, then: The contact time was 150 s for each concentration at […] with a final dissociation step of 500 s. […] At the end of each single cycle run, the mTfR1 surface was fully regenerated by an injection of 10 mM NaOH for 30 s. After each single cycle kinetic run, blank run was performed and used for baseline correction. The data with respect to the association rate constant (ka), the dissociation rate constant (kd) and the equilibrium dissociation constant (KD) was evaluated using Biacore T200 software evaluation tool applying a Langmuir 1:1 model.

T1 sequence (P02786 other isoform, or with tags, fused parts or gaps limits assumed): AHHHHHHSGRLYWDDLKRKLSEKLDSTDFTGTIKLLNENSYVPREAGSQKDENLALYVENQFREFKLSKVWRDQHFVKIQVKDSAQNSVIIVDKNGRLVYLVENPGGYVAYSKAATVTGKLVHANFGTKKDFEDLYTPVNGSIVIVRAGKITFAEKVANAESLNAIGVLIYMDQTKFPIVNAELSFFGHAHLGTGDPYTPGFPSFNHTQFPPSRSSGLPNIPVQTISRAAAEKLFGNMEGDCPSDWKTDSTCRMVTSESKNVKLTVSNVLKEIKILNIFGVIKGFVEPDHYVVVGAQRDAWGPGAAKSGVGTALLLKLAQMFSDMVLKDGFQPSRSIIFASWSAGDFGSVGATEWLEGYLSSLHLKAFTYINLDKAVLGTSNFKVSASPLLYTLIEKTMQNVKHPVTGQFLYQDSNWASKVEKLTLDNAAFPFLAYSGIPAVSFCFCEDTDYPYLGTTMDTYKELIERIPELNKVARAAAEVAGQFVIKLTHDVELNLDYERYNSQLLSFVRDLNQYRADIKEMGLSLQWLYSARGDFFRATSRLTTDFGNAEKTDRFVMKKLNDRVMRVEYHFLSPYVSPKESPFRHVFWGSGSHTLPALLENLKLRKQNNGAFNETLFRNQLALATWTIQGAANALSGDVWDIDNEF
T2 sequence (Q62351 other isoform, or with tags, fused parts or gaps limits assumed): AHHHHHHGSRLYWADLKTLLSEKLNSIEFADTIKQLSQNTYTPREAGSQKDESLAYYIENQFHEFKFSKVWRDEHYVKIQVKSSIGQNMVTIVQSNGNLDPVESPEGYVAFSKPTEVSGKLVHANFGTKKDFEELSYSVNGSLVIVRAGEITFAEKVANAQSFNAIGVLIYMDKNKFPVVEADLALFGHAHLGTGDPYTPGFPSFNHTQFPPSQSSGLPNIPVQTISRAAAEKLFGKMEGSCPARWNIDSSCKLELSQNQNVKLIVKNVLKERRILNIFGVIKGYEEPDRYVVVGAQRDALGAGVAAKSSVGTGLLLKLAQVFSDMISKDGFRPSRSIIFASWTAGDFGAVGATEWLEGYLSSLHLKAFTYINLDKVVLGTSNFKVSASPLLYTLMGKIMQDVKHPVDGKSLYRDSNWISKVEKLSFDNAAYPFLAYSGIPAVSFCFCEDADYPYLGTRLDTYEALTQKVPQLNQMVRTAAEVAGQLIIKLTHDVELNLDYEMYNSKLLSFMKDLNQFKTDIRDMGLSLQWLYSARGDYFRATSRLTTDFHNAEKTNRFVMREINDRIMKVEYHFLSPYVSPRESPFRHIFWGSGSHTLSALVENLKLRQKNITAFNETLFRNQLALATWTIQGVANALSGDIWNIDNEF

B1: KB_A01, monomeric free VHH with C-terminal 6xHis tag and C-tag (VHH)
VHH: QVQLQESGGGSVQAGGSLSLSCAASGSIFGSKRMGWFRQAPGEQRDVVATITYRGTTEYADSVKGRFTISRDNAKNTVYLQMNNLKPEDTAVYYCWMFTTDNYWGQGTQVTVSS
notes: From the periplasm of E. coli
In assay [1], B1 showed a Kd of 4.1 nM, a koff of 0.00414 s⁻¹ and a kon of 1.01e+06 M⁻¹ s⁻¹. In addition, in assay [2], the “fold lower affinity (KD) than the bivalent BA1” value worked out at 206 fold. Moreover, in assay [3], the binding result is “no binding (tested: 6.25 to 100 nM)”.
